Measurements from US20250333514A1 (CDR LIFE, published 2025).

Target: T1, HLA-A*02:01/PRAME antigen (recombinant, … on HLA-A*02:01) (human, Complex biotinylated for SPR capture; site of biotin and any tag not stated, not in the letters.)
T1 construct: also called PRAME target; pMHC
Test: SPR (Biacore 8K), biotinylated pMHC captured, Fab-scFv analyte, single-cycle kinetics, 1:1 fit
Protocol: Recombinantly produced hits in Fab-scFv format, as described in Example 4, were evaluated for their ability to bind HLA-A*02:01/PRAME antigen. Binding characterization was performed by surface plasmon resonance (SPR) using a Biacore™ 8k (Cytiva) device. Briefly, 3000 RU of Biotin CAPture reagent (Cytiva) was immobilized on a Series S Sensor Chip CAP (Cytiva) and the biotinylated ligand HLA-A*02:01/PRAME (SEQ ID NO: 68) was diluted in HPS-EP+ running buffer (TEKNOVA) and captured for 300 s at a flow rate of 2 μL/min at flow cell 2 resulting in a ligand capture level of >100 RU. Subsequently, at least three consecutive analyte injections were performed at suitable concentrations applying the single-cycle-kinetics mode at a flow rate of 30 μL/min with an association time of 90 s and the dissociation time set to >400 s. The chip surface was regenerated according to the manufacturer's instructions. After reference flow cell signal and blank injections subtraction, the data was fit to a 1:1 Langmuir binding model to determine the association rate constant kₐ and dissociation rate constant kd and calculate the equilibrium dissociation constant KD (kd/kₐ), also denoted as affinity, using the Biacore™ Insight Evaluation software.

| Kd [nM] | Binder |
| --- | --- |
| 0.23 | M2638 (bispecific antibody, Monovalent Fab-scFv: anti-CD3 Fab with the rabbit anti-pMHC scFv on the C-terminus of the Fab heavy chain; also called rabbit hit M2638; HLA-A*02:01/PRAMExCD3 Fab-scFv) heavy: EVQLVESGGGLVQPGGSLRLSCAASGFTFSTYAMNWVRQAPGKGLEWVGRIRSKYNNYATYYADSVKGRFTISRDDSKNTLYLQMNSLRAEDTAVYYCVRHGNFGDSYVSWFAYWGQGTLVTVSSASTKGPSVFPLAPSSKSTSGGTAALGCLVKDYFPEPVTVSWNSGALTSGVHTFPAVLQSSGLYSLSSVVTVPSSSLGTQTYICNVNHKPSNTKVDKKVEPKSCGGGGSQEQLVESGGGLVQPGGSLKLSCKASGFDFSTYGVSWVRQAPGKGLEWIGYIDPVYGSTYYASWVNGRFTISSHNAQNTLYLQLNSLTAADTATYFCVRDLYAGSSGYYMIYSLWGPGTLVTVSSGGGGSGGGGSGGGGSGGGGSELVMTQTPSSVSAAVGGTVTIKCQSSQSVYNNLLGWYQQKPGQPPKLLIYSASTLASGVPSRFSGSGSGTEFTLTISGVQADDAASYYCQGTYYNGDWYYPFGGGTEVVVK light: QAVVTQEPSLTVSPGGTVTLTCGSSTGAVTTSNYANWVQQKPGKSPRGLIGGTNKRAPGVPARFSGSLLGGKAALTISGAQPEDEADYYCALWYSNHWVFGGGTKLTVLGQPKAAPSVTLFPPSSEELQANKATLVCLISDFYPGAVTVAWKADSSPVKAGVETTTPSKQSNNKYAASSYLSLTPEQWKSHRSYSCQVTHEGSTVEKTVAPTECS |
| 0.27 | M3284 (bispecific antibody, Humanized variant of M2638, monovalent Fab-scFv) heavy: EVQLVESGGGLVQPGGSLRLSCAASGFTFSTYAMNWVRQAPGKGLEWVGRIRSKYNNYATYYADSVKGRFTISRDDSKNTLYLQMNSLRAEDTAVYYCVRHGNFGDSYVSWFAYWGQGTLVTVSSASTKGPSVFPLAPSSKSTSGGTAALGCLVKDYFPEPVTVSWNSGALTSGVHTFPAVLQSSGLYSLSSVVTVPSSSLGTQTYICNVNHKPSNTKVDKKVEPKSCGGGGSDIQMTQSPSSLSASVGDRVTITCRSSQSVYNNLLGWYQQKPGKAPKLLIYSASTLASGVPSRFSGSGSGTDFTLTISSLQPEDSATYYCQGTYYTGDWYYPFGCGTKVEIKGGGGSGGGGSGGGGSGGGGSQVQLVESGGGSVQPGRSLRLSCAASGFTVSTYGVSWVRQAPGKCLEWIGYIDPVYGSTHYADSVKGRFTISRDNSKNTLYLQMNSLRAEDTASYYCVRDLYAGSSGYYMIYSLWGQGTSVTVSS light: QAVVTQEPSLTVSPGGTVTLTCGSSTGAVTTSNYANWVQQKPGKSPRGLIGGTNKRAPGVPARFSGSLLGGKAALTISGAQPEDEADYYCALWYSNHWVFGGGTKLTVLGQPKAAPSVTLFPPSSEELQANKATLVCLISDFYPGAVTVAWKADSSPVKAGVETTTPSKQSNNKYAASSYLSLTPEQWKSHRSYSCQVTHEGSTVEKTVAPTECS |
| 1.3 | M3285 (bispecific antibody, Humanized variant of M2638, monovalent Fab-scFv) heavy: EVQLVESGGGLVQPGGSLRLSCAASGFTFSTYAMNWVRQAPGKGLEWVGRIRSKYNNYATYYADSVKGRFTISRDDSKNTLYLQMNSLRAEDTAVYYCVRHGNFGDSYVSWFAYWGQGTLVTVSSASTKGPSVFPLAPSSKSTSGGTAALGCLVKDYFPEPVTVSWNSGALTSGVHTFPAVLQSSGLYSLSSVVTVPSSSLGTQTYICNVNHKPSNTKVDKKVEPKSCGGGGSDIQMTQSPSSLSASVGDRVTITCRSSQSVYNNLLGWYQQKPGKAPKLLIYSASTLASGVPSRFSGSGSGTDFTLTISSLQPEDSATYYCQGTYYTGDWYYPFGCGTKVEIKGGGGSGGGGSGGGGSGGGGSQVQLVESGGGSVQPGRSLRLSCAASGFDFSTYGVSWVRQAPGKCLEWIGYIDPVYGSTHYADSVKGRFTISRDNSKNTLYLQMNSLRAEDTASYYCARDLYAGSSGYYMIYSLWGQGTSVTVSS light: QAVVTQEPSLTVSPGGTVTLTCGSSTGAVTTSNYANWVQQKPGKSPRGLIGGTNKRAPGVPARFSGSLLGGKAALTISGAQPEDEADYYCALWYSNHWVFGGGTKLTVLGQPKAAPSVTLFPPSSEELQANKATLVCLISDFYPGAVTVAWKADSSPVKAGVETTTPSKQSNNKYAASSYLSLTPEQWKSHRSYSCQVTHEGSTVEKTVAPTECS |

The remaining lines, values behind:

| Binder | Kd [nM] |
| --- | --- |
| M3202 (bispecific antibody, Humanized variant of M2638, monovalent Fab-scFv) heavy: EVQLVESGGGLVQPGGSLRLSCAASGFTFSTYAMNWVRQAPGKGLEWVGRIRSKYNNYATYYADSVKGRFTISRDDSKNTLYLQMNSLRAEDTAVYYCVRHGNFGDSYVSWFAYWGQGTLVTVSSASTKGPSVFPLAPSSKSTSGGTAALGCLVKDYFPEPVTVSWNSGALTSGVHTFPAVLQSSGLYSLSSVVTVPSSSLGTQTYICNVNHKPSNTKVDKKVEPKSCGGGGSDIQMTQSPSSLSASVGDRVTITCRSSQSVYNNLLGWYQQKPGKAPKLLIYSASTLASGVPSRFSGSGSGTDFTLTISSLQPEDSATYYCQGTYYTGDWYYPFGCGTKVEIKGGGGSGGGGSGGGGSGGGGSQVQLVESGGGSVQPGRSLRLSCAASGFDFSTYGVSWVRQAPGKCLEWIGYIDPVYGSTHYADSVKGRFTISRDNSKNTLYLQMNSLRAEDTASYYCVRDLYAGSSGYYMIYSLWGQGTSVTVSS light: QAVVTQEPSLTVSPGGTVTLTCGSSTGAVTTSNYANWVQQKPGKSPRGLIGGTNKRAPGVPARFSGSLLGGKAALTISGAQPEDEADYYCALWYSNHWVFGGGTKLTVLGQPKAAPSVTLFPPSSEELQANKATLVCLISDFYPGAVTVAWKADSSPVKAGVETTTPSKQSNNKYAASSYLSLTPEQWKSHRSYSCQVTHEGSTVEKTVAPTECS | 0.04 |
| M2913 (bispecific antibody, Humanized variant of M2638, monovalent Fab-scFv) heavy: EVQLVESGGGLVQPGGSLRLSCAASGFTFSTYAMNWVRQAPGKGLEWVGRIRSKYNNYATYYADSVKGRFTISRDDSKNTLYLQMNSLRAEDTAVYYCVRHGNFGDSYVSWFAYWGQGTLVTVSSASTKGPSVFPLAPSSKSTSGGTAALGCLVKDYFPEPVTVSWNSGALTSGVHTFPAVLQSSGLYSLSSVVTVPSSSLGTQTYICNVNHKPSNTKVDKKVEPKSCGGGGSDIQMTQSPSSLSASVGDRVTITCQSSQSVYNNLLGWYQQKPGKAPKLLIYSASTLASGVPSRFSGSGSGTDFTLTISSLQPEDFATYYCQGTYYNGDWYYPFGCGTKVEIKGGGGSGGGGSGGGGSGGGGSEVQLVESGGGSVQPGGSLRLSCAASGFDFSTYGVSWVRQAPGKCLEWIGYIDPVYGSTYYASWVNGRFTISRDNSKNTLYLQMNSLRAEDTASYYCVRDLYAGSSGYYMIYSLWGQGTSVTVSS light: QAVVTQEPSLTVSPGGTVTLTCGSSTGAVTTSNYANWVQQKPGKSPRGLIGGTNKRAPGVPARFSGSLLGGKAALTISGAQPEDEADYYCALWYSNHWVFGGGTKLTVLGQPKAAPSVTLFPPSSEELQANKATLVCLISDFYPGAVTVAWKADSSPVKAGVETTTPSKQSNNKYAASSYLSLTPEQWKSHRSYSCQVTHEGSTVEKTVAPTECS | 0.66 |
| M3283 (bispecific antibody, Humanized variant of M2638, monovalent Fab-scFv) heavy: EVQLVESGGGLVQPGGSLRLSCAASGFTFSTYAMNWVRQAPGKGLEWVGRIRSKYNNYATYYADSVKGRFTISRDDSKNTLYLQMNSLRAEDTAVYYCVRHGNFGDSYVSWFAYWGQGTLVTVSSASTKGPSVFPLAPSSKSTSGGTAALGCLVKDYFPEPVTVSWNSGALTSGVHTFPAVLQSSGLYSLSSVVTVPSSSLGTQTYICNVNHKPSNTKVDKKVEPKSCGGGGSDIQMTQSPSSLSASVGDRVTITCRSSQSVYNNLLGWYQQKPGKAPKLLIYSASTLASGVPSRFSGSGSGTDFTLTISSLQPEDSATYYCQGTYYTGDWYYPFGCGTKVEIKGGGGSGGGGSGGGGSGGGGSQVQLVESGGGSVQPGRSLRLSCAASGFTFSTYGVSWVRQAPGKCLEWIGYIDPVYGSTHYADSVKGRFTISRDNSKNTLYLQMNSLRAEDTASYYCVRDLYAGSSGYYMIYSLWGQGTSVTVSS light: QAVVTQEPSLTVSPGGTVTLTCGSSTGAVTTSNYANWVQQKPGKSPRGLIGGTNKRAPGVPARFSGSLLGGKAALTISGAQPEDEADYYCALWYSNHWVFGGGTKLTVLGQPKAAPSVTLFPPSSEELQANKATLVCLISDFYPGAVTVAWKADSSPVKAGVETTTPSKQSNNKYAASSYLSLTPEQWKSHRSYSCQVTHEGSTVEKTVAPTECS | 0.09 |
| M3182 (bispecific antibody, Humanized variant of M2638, monovalent Fab-scFv) heavy: EVQLVESGGGLVQPGGSLRLSCAASGFTFSTYAMNWVRQAPGKGLEWVGRIRSKYNNYATYYADSVKGRFTISRDDSKNTLYLQMNSLRAEDTAVYYCVRHGNFGDSYVSWFAYWGQGTLVTVSSASTKGPSVFPLAPSSKSTSGGTAALGCLVKDYFPEPVTVSWNSGALTSGVHTFPAVLQSSGLYSLSSVVTVPSSSLGTQTYICNVNHKPSNTKVDKKVEPKSCGGGGSDIQMTQSPSSLSASVGDRVTITCRSSQSVYNNLLGWYQQKPGKAPKLLIYSASTLASGVPSRFSGSGSGTDFTLTISSLQPEDFATYYCQGTYYTGDWYYPFGCGTKVEIKGGGGSGGGGSGGGGSGGGGSQVQLVESGGGSVQPGRSLRLSCAASGFDFSTYGVSWVRQAPGKCLEWIGYIDPVYGSTHYADSVKGRFTISRDNSKNTLYLQMNSLRAEDTASYYCVRDLYAGSSGYYMIYSLWGQGTSVTVSS light: QAVVTQEPSLTVSPGGTVTLTCGSSTGAVTTSNYANWVQQKPGKSPRGLIGGTNKRAPGVPARFSGSLLGGKAALTISGAQPEDEADYYCALWYSNHWVFGGGTKLTVLGQPKAAPSVTLFPPSSEELQANKATLVCLISDFYPGAVTVAWKADSSPVKAGVETTTPSKQSNNKYAASSYLSLTPEQWKSHRSYSCQVTHEGSTVEKTVAPTECS | 0.04 |
